Results published in paper PMC9269880 (Science Advances, 2022).

Tests used:
H3K9me3 mononucleosome = H3K9me3 mononucleosome (UniProt P68431); test: native gel or EMSA
cross-linking = molecular target: the molecule itself; test: cross-linking

| Molecule | fold increase in H3K9me3 nucleosome binding specificity against WT Swi6 (H3K9me3 mononucleosome) [fold] | binding result (cross-linking) |
| --- | --- | --- |
| Swi6^2XCD-GST (recombinant, 6XHis tag cleaved) | 2 | – |
| 3XFLAG-Swi6 (natural protein, S. pombe, UniProt P40381 1-328, looked up) MKKGGVRSYRRSSTSKRSVIDDDSEPELPSMTKEAIASHKADSGSSDNEVESDHESKSSSKKLKENAKEEEGGEEEEEDEYVVEKVLKHRMARKGGGYEYLLKWEGYDDPSDNTWSSEADCSGCKQLIEAYWNEHGGRPEPSKRKRTARPKKPEAKEPSPKSRKTDEDKHDKDSNEKIEDVNEKTIKFADKSQEEFNENGPPSGQPNGHIESDNESKSPSQKESNESEDIQIAETPSNVTPKKKPSPEVPKLPDNRELTVKQVENYDSWEDLVSSIDTIERKDDGTLEIYLTWKNGAISHHPSTITNKKCPQKMLQFYESHLTFRENE | – | binds |
